# Assay results: publication PMC5371411 (mBio, 2017)
# Where “and” joins values, the source holds several entries; their conditions need not be identical. Equal values may be shown once.
# What was measured:
# His-EspC = target: T1, His-EspC (enteropathogenic Escherichia coli (EPEC), UniProt Q9EZE7 55-1032); assay: SPR; His-EspC coupled by its His tag and EDC-NHS on a nickel-nitrilotriacetic acid sensor slide; His-EspA or His-EspA/His-EspD perfused in PBST at 50 µl/min; Reichert SR7500DC; conditions: both partners purified
# T1 construct: also called whole EspC passenger domain tagged with 6xHis; whole EspC protein (SPR); source: E. coli BL21(D3)pLysS, pRSET-A, purified (Ni-NTA agarose); not shown: 6xHis, N-terminal, kept
# T1 sequence: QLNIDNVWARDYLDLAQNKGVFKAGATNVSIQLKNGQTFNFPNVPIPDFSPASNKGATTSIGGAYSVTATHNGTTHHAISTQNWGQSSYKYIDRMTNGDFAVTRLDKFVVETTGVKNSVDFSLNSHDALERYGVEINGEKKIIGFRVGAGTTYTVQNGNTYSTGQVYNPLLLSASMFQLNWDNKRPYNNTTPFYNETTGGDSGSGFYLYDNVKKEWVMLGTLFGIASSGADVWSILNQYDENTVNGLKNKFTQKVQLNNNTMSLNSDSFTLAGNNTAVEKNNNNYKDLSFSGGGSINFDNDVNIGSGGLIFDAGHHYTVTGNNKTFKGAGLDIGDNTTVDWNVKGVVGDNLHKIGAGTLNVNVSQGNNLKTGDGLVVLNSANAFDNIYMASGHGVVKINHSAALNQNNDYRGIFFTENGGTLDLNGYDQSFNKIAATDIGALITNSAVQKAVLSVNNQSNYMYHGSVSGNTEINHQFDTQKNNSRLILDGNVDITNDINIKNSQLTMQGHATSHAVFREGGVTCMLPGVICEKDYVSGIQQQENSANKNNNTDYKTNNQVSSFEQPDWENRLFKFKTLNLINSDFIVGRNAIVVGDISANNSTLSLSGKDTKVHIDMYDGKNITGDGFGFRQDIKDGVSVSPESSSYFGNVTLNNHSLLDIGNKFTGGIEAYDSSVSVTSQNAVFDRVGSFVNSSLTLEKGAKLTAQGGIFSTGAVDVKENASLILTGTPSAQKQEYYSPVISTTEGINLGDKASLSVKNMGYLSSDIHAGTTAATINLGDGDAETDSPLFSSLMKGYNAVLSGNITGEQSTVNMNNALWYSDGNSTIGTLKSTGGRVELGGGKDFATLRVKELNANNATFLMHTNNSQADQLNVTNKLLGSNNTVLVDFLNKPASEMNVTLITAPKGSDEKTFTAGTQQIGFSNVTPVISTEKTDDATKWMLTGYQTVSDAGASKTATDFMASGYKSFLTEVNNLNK
# EspC His-Middle segment = target: T2, EspC His-Middle segment (enteropathogenic Escherichia coli (EPEC), UniProt Q9EZE7 382-708); assay: SPR; His-EspA amine-coupled (EDC-NHS, 10 mM sodium acetate pH 4.0) to a planar polyethylene glycol/carboxyl sensor slide; analyte perfused in PBST at 50 µl/min; Reichert SR7500DC; conditions: both partners purified
# T2 construct: also called Middle fragment; source: E. coli BL21(D3)pLysS, pRSET-A, purified (Ni-NTA agarose); not shown: 6xHis, N-terminal, kept
# T2 sequence: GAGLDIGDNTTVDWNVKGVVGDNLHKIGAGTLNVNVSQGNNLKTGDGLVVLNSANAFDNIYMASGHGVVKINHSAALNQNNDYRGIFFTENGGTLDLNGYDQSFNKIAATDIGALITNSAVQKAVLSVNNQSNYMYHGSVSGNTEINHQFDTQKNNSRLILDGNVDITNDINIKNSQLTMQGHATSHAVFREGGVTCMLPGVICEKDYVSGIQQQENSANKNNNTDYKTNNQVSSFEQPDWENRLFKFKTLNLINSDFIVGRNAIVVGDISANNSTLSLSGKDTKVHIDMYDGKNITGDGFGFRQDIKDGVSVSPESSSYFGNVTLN
# [1] = target: the molecule itself; assay: as above
# EspCS256I = EspCS256I (enteropathogenic Escherichia coli (EPEC), UniProt Q9EZE7 54-1018, S256I); assay: pull-down; conditions: both partners purified
binder,measurement,setting,value
"His-EspA (natural protein, also called EPEC secreted protein A) MDTSTTASVASANASTSTSMAYDLGSMSKDDVIDLFNKLGVFQAAILMFAYMYQAQSDLSIAKFADMNEASKESTTAQKMANLVDAKIADVQSSSDKNAKAQLPDEVISYINDPRNDITISGIDNINAQLGAGDLQTVKAAISAKANNLTTTVNNSQLEIQQMSNTLNLLTSARSDMQSLQYRTISGISLGK",Kd,His-EspC,25.1 nM
same,Kd,EspC His-Middle segment,3.45 nM and 3.43 nM
same,Kd,[1],2.64 nM
same,binding result,EspCS256I,binds
